Results: patent US20150232556A1

Biological target: KIR3DL2CD3ε fusion protein on Jurkat reporter cells (UniProt P43630)
Assay: cell-based or functional assay

KIR3DL2CD3ε fusion protein on Jurkat reporter cells, sequence (P43630 other isoform, or with tags, fused parts or gaps limits assumed): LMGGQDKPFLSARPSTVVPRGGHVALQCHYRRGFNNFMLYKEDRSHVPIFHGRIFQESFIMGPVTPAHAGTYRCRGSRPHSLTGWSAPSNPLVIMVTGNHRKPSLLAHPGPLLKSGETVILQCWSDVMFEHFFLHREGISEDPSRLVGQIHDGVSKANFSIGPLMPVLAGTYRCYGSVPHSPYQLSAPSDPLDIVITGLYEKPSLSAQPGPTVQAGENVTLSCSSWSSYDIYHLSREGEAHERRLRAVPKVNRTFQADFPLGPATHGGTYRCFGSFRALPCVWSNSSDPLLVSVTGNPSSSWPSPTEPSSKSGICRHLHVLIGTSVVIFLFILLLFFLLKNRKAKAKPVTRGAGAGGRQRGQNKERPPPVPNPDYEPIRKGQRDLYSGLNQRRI

**Q.** Which IL-2 production by KIR3DL2CD3ε transduced Jurkat reporter cells (ELISA) does the source give for “HLA-B27 on transfected LCL.LBL.721.221 cells (ligand)” here?
**A.** 6 fold
